Data: paper PMC4497662, “Single Turnover Autophosphorylation Cycle of the PKA RIIβ Holoenzyme” (PLoS Biology, 2015)

How the values were obtained:
[1] = target: T1, PKA catalytic subunit (isoform α), mouse (mouse, UniProt P05132 2-351); experiment: SPR; GST-RIIβ 102–416 wild type and S112A captured on an anti-GST antibody CM5 chip (80 RU), C-subunit 30–0.12 nM injected; buffer A with 1 mM ATP and 10 mM CaCl2; 30 μL/min, 25°C; conditions: both partners purified
[2] = target: T1, PKA catalytic subunit (isoform α), mouse; experiment: SPR; GST-RIIβ 102–416 (nonphospho or phospho) captured on an anti-GST antibody CM5 chip (80–120 RU), C-subunit 0.3–200 nM injected; buffer A only (chelators EDTA/EGTA, no nucleotide or metal); global fit, 1:1 Langmuir; conditions: both partners purified
[3] = target: T1, PKA catalytic subunit (isoform α), mouse; experiment: SPR; GST-RIIβ 102–416 (nonphospho or phospho) captured on an anti-GST antibody CM5 chip (80–120 RU), C-subunit 0.3–200 nM injected; buffer A with 1 mM ADP and 10 mM MgCl2; global fit, 1:1 Langmuir; conditions: both partners purified
[4] = target: T1, PKA catalytic subunit (isoform α), mouse; experiment: SPR; GST-RIIβ 102–416 (nonphospho, phospho or S112A) captured on an anti-GST antibody CM5 chip (80–120 RU), C-subunit injected; buffer A (20 mM MOPS, 150 mM NaCl, 100 μM EDTA, 100 μM EGTA, 0.01% P20) with 1 mM ATP and 10 mM MgCl2; global fit, 1:1 Langmuir; 25°C stated for the series of Fig 5; conditions: both partners purified
[5] = target: T1, PKA catalytic subunit (isoform α), mouse; experiment: as above; conditions: both partners purified; remark: listed apart in the source
[6] = target: T1, PKA catalytic subunit (isoform α), mouse; experiment: crystal structure; apo RIIβ(1–416, R230K)2:C2 holoenzyme crystals soaked overnight with 5 mM CaCl2 and 1 mM ATP; 2.8 Å; conditions: both partners purified
[7] = target: the molecule itself; experiment: as above

| koff [1] | Kd [2] | koff [2] | kon [2] | Kd [3] | koff [3] | kon [3] | Kd [4] | koff [4] | kon [4] | binding result [5] | binding result [6] | Binder | binding result [7] |
| --- | --- | --- | --- | --- | --- | --- | --- | --- | --- | --- | --- | --- | --- |
| ~0.0001 s⁻¹ | 0.39 nM | 0.00021 s⁻¹ | 530000 M⁻¹ s⁻¹ | 0.24 nM | 0.00015 s⁻¹ | 640000 M⁻¹ s⁻¹ | 0.14 nM | 0.0003 s⁻¹ | 2.1e+06 M⁻¹ s⁻¹ | – | – | GST-RIIβ 102–416 (nonphosphorylated, wild type) (domain or fragment, rat, UniProt P12369 102-416, looked up, also called nonphospho form of RIIβ; source: E. coli BL21 (DE3), purified (cAMP resin, cGMP elution); cyclic nucleotide-free) PVINRFTRRASVCAEAYNPDEEEDDAESRIIHPKTDDQRNRLQEACKDILLFKNLDPEQMSQVLDAMFEKLVKEGEHVIDQGDDGDNFYVIDRGTFDIYVKCDGVGRCVGNYDNRGSFGELALMYNTPRAATITATSPGALWGLDRVTFRRIIVKNNAKKRKMYESFIESLPFLKSLEVSERLKVVDVIGTKVYNDGEQIIAQGDSADSFFIVESGEVRITMKRKGKSDIEENGAVEIARCLRGQYFGELALVTNKPRAASAHAIGTVKCLAMDVQAFERLLGPCMEIMKRNIATYEEQLVALFGTNMDIVEPTA | – |
| – | – | – | – | – | – | – | – | – | – | binds | – | GST-RIIβ 102–416 S112A (domain or fragment, rat, UniProt P12369 102-416, looked up, also called RIIβ(S112A); source: E. coli BL21 (DE3), purified (cAMP resin, cGMP elution); cyclic nucleotide-free) PVINRFTRRAAVCAEAYNPDEEEDDAESRIIHPKTDDQRNRLQEACKDILLFKNLDPEQMSQVLDAMFEKLVKEGEHVIDQGDDGDNFYVIDRGTFDIYVKCDGVGRCVGNYDNRGSFGELALMYNTPRAATITATSPGALWGLDRVTFRRIIVKNNAKKRKMYESFIESLPFLKSLEVSERLKVVDVIGTKVYNDGEQIIAQGDSADSFFIVESGEVRITMKRKGKSDIEENGAVEIARCLRGQYFGELALVTNKPRAASAHAIGTVKCLAMDVQAFERLLGPCMEIMKRNIATYEEQLVALFGTNMDIVEPTA | – |
| – | 0.31 nM | 0.00011 s⁻¹ | 340000 M⁻¹ s⁻¹ | 0.22 nM | 0.00012 s⁻¹ | 550000 M⁻¹ s⁻¹ | 7 nM | 0.00026 s⁻¹ | 38000 M⁻¹ s⁻¹ | – | – | phosphorylated GST-RIIβ 102–416 (pRIIβ) (domain or fragment, rat, UniProt P12369 102-416, looked up, phosphoserine at 112, source: E. coli BL21 (DE3), purified; phosphorylated in preformed holoenzyme with C-subunit and MgATP, C-subunit released on the chip with 500 nM cGMP) PVINRFTRRASVCAEAYNPDEEEDDAESRIIHPKTDDQRNRLQEACKDILLFKNLDPEQMSQVLDAMFEKLVKEGEHVIDQGDDGDNFYVIDRGTFDIYVKCDGVGRCVGNYDNRGSFGELALMYNTPRAATITATSPGALWGLDRVTFRRIIVKNNAKKRKMYESFIESLPFLKSLEVSERLKVVDVIGTKVYNDGEQIIAQGDSADSFFIVESGEVRITMKRKGKSDIEENGAVEIARCLRGQYFGELALVTNKPRAASAHAIGTVKCLAMDVQAFERLLGPCMEIMKRNIATYEEQLVALFGTNMDIVEPTA | – |
| – | – | – | – | – | – | – | – | – | – | – | binds | RIIβ(1–416, R230K), phosphorylated at Ser112 in the crystal (natural protein, phosphoserine at 112 (after the soak with CaATP), Two copies stand with two C-subunits in the RIIβ2:C2 holoenzyme; also called pRIIβ; RIIβ(R230K); source: E. coli BL21 (DE3), purified (cAMP resin, cGMP elution); holoenzyme crystals soaked with 5 mM CaCl2 and 1 mM ATP) not shown | binds |
